According to the supplement of paper PMC12764529:
± gives the half width of the 95% confidence interval.

experiment: folding stability dG unfold from trypsin proteolysis; higher = more stable
Summary of the method: (§1)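 How resistant each design was to proteolysis was captured as K50, inferred by Bayesian fitting of sequencing counts. Unfolding free energy was then derived relative to a sequence-predicted unfolded-state K50 and a shared folded-state K50, per protease or combined. Digestion used trypsin and chymotrypsin at 11 threefold-diluted concentrations plus a no-protease condition, on mini-proteins under 80 residues without cysteine in a PA-tagged cDNA display construct. Designs were kept only when AlphaFold2 dimer inter-PAE was above 15.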

Sequence | folding stability dG unfold [kcal/mol]
SAGGSAGGMKTITIELPPGPVRIRVRLAATGEEVTVEVDAETPTVTITIPEEGAEIVEIEIEPVSAGGSAGG [r6_977_TrROS_Hall] | 2.06 ± 0.065
SAGGSAGGSAGGPVRLLVLEVPVENVEEVVRRLEALGSVRPVRVERLPGDRYRVLVVSPLSAGGSAGGSAGG [r7_589_TrMRF] | 1.3 ± 0.046
SAGGSAGGSAGKIWIYNPENGWIFEISIQPHPMPNDDGEPQWMFSIDVEVYPPGKPGQPISAGGSAGGSAGG [r11_531_TrROS] | 2.59 ± 0.079
SAGGSAGGDAKTFEVEGMTVFVDPETGLAVAEFPDGYLALGRIEVFGPGVAKVDLEIFPLPPGLSAGGSAGG [r6_670_TrMRF] | 1.74 ± 0.11
SAGGSAGGSAGGPKVIEITNKDGSTFRLVEVDGELYLYNEKTGKVVKLPPGAKITIKKPSAGGSAGGSAGGS [r10_637_TrROS_Hall] | 1.39 ± 0.033
SAGGIVEEAIKKLFESGIPLSEEEIKEIIEKAIKEENEKKGKKIEKIEIGEIKFNPETGYAPIKIKASAGGS [r16_365_TrMRF] | -0.383 ± 0.48
SAGGSAGGSAGKRRIYILGMDTVQVAEYLRDTGPDIKVEVFNPGQPMEEFQDNYDIVIFVSAGGSAGGSAGG [r17_225_TrROS] | 1.59 ± 0.035
SAGGSAGGSAGYLELKISFFDPDGQILASITIWIEIVIPPPPKMEYERDPEDGNNKWEHDSAGGSAGGSAGG [r17_348_TrROS] | 2.49 ± 0.23
SAGGSAGGSADGWVFLVGADVEVEPVPASLLNVPRSVPGEENPYVVKLKEVSFLLVPAKELSAGGSAGGSAG [r3_488_TrMRF] | -0.906 ± 0.39
MKEITVTLPVPEEVLAAIRAGKPLPLEEIKERVKEEIAKRLGYKNVTIKSVKVEKLPDGSLVIKVKVEFLPS [r1_290_JUSTAS] | 5.45 ± 0.43
SAGEKFEPVEEKELTLKITLKDKDGNEKEVEIKVKVEVVKNPDGTLTVRAEITFEDGTKIELELEIKLPSAG [r5_57_TrROS_Hall] | 3.27 ± 0.16
SAGGSAGGSAGSSMTTVTVTITDTGSGKTTTTELDVPVSEVQAVIDELSPSPTLTITVVQSAGGSAGGSAGG [r17_50_JUSTAS] | 1.84 ± 0.049
SAGGSAGGSAGKPKTVEIEVTNEDGSKYKAKVVEVDEEKGYVLIKITNPDGSEQTILIKLSAGGSAGGSAGG [r11_742_TrROS_Hall] | 1.81 ± 0.06
SANPIPLEKANITVSYTSPDGLVVTANITSVTYDPSTGKYTFTFTGTLTDPSTGTTTPVSFTVSTVTLSSAG [r14_825_JUSTAS] | 2.68 ± 0.1
SAGGGMQAVSPVKTETKTSPDGTTTTTTTTRYPDGTVVVPVTETSPTGGAKKVATTTVSLGPPSPALASAGG [r13_494_JUSTAS] | -0.315 ± 0.085
SAGGSAGGSAGGGPDAVRQFPPPVNLSVEVTSYTSPSSSLSNGKPEKSTFTTLNPTAGVSAGGSAGGSAGGS [r10_877_JUSTAS] | 0.0381 ± 0.13
SAGGSAGGSPWKKVKFKFMFPFPNYYVRISIEIWVNPGDNEIMIEMSIEIFPIPPGDNKAFKDSAGGSAGGS [r12_885_TrROS] | 2.79 ± 0.24
SMPVTITRDFDIPLATLSVEEVKAAIEEALKAEGLNVVEPKLDEKLVKELEEAPPSSTLPVKVTVLVEPASA [r9_1163_JUSTAS] | 0.35 ± 0.074
SAGGSAVERLRELLKELGVEVTVERKDGKVYIRVEASPEKREKLAEALRELFGKDIEIEVLEEGEEPSAGGS [r16_514_TrROS_Hall] | 3.86 ± 0.18
SAGGSAMTPEEARARAEAIAEELAAEARAAGRAAEVTVEVTELPPELYRFTITFPGRTREVLLPVESAGGSA [r15_432_JUSTAS] | -0.18 ± 0.18
SAGGSAGGKIKLDGKEIVIVMSKEEKEKIAKELKEKFPNVKIKVVEGMSEEEAAKKADLVIVFDSAGGSAGG [r6_679_TrROS_Hall] | -0.142 ± 0.18

experiment: folding stability dG unfold from chymotrypsin proteolysis; higher = more stable
Summary of the method: as §1

Sequence | folding stability dG unfold [kcal/mol]
SAGGSAGGSMTLVLEVDSVEDALAAVEALLPPGYRVTIEVEERGGRLLVTITIEPAPAPPPEESAGGSAGGS [r12_195_TrROS_Hall] | 3.51 ± 0.075
SAGGGSSVLSETVSVDPNNVTTTTTTYKAGDTTSTTTTTTTTTPPVPNLPLPPPPPVSPEAIALGLLLSAGG [r13_760_JUSTAS] | -0.0352 ± 0.18
SAGELELELELEFELEDGYRVEVRLRLRVRPDGSVRMELEVRIEPLPPPPPVRVVVVREDDPEALRALSAGG [r19_12_TrROS_Hall] | 4.49 ± 0.19
SAGGSATIEEKIRNIAKEQGFPVTDVQVRRTPGKVYIMFQAKDPRMYYIEIDNDKIKIMPAEDIKPSAGGSA [r15_901_TrROS] | 1.57 ± 0.064
SAGGSAGGSAGSIVLTKTEILPGPENRPIIKTTIYKPPGPITITYPGGDPSKLVIETNSGSAGGSAGGSAGG [r17_64_JUSTAS] | -0.331 ± 0.37
SAGGSAGGMVTIASITFEEDPEGGITVTVYLPSNGKTITVPVPADTPEAEARARAEAAARAYAASAGGSAGG [r6_628_JUSTAS] | 1.49 ± 0.098
SASPSETTTYTVELTSTDPSLTPEDLAERAREEFEAALPPGTRVEVEVVSVTPIPETGTTRYTIRITVRRSA [r9_706_JUSTAS] | 4.26 ± 0.046
SAGGSAGGSAGGKTYTAEELRSLPPGAKITLADGKVIEVSIEQLEKEIKPGDTVRIERVPSAGGSAGGSAGG [r7_643_TrROS_Hall] | -0.404 ± 0.17
SAGGSAGGSAGPDKPIYVMIKFEHPGRKYTHSFEFDSPEDIEEVLDRLPPGYEIKEVEIFSAGGSAGGSAGG [r17_410_TrROS] | 0.946 ± 0.25
SAGGSAGGSKTITLSAEELEKMSPEERKKLAELAEKLGAKIEVKDGKVTITIEGLTPEELKALSAGGSAGGS [r12_945_TrROS_Hall] | 2.33 ± 0.12
SAGGSAGGSAGGMVTTKTVVTFDPSGYITTTETIKVVGTDELLTKTSVTPVEPVPPLLSSAGGSAGGSAGGS [r10_928_JUSTAS] | 1.18 ± 0.026
SAGGSYTVEELPPGGILRITFTVPKSRPAEVPLELKAPDGTPVDVESYSITPVGDTNVITYTIKVPLSAGGS [r16_499_JUSTAS] | 1.81 ± 0.15
SMTIERHPDKLTVRVPAAFSTVPEVVRFLKELGFELPPGVKDVRVEDVEPGARVVRVTVHFDDPEALERLSA [r9_820_TrMRF] | 1.58 ± 0.049
SAGGSAGGSAGKKIKVKIEVVYTDEDGNKHKVEMEKEIELKPGDKITLPPEAITRVEILPSAGGSAGGSAGG [r11_664_TrROS_Hall] | 1.95 ± 0.12
SAGMEVKVETVTIEIEVDGKKIEIKVVRVEVRNEDGSIYEFTFIEITVPEDVSEEELRKLLEELGLEPESAG [r5_486_TrROS_Hall] | 4.1 ± 0.31
SAGGHHMTIETFEEPDKLTVVVDGDDPEATREYLLQKVKEESSRKPVKVTFTEDPNGKLTITFDLKEESAGG [r13_158_JUSTAS] | -0.186 ± 0.34
SAEVETVTLELELPEDGYRVTITVTYNKETGEVTVEIRIINPNGEEKTITIKVKSLEEALKKLEFKLLPSAG [r14_749_TrROS_Hall] | 2.45 ± 0.054
ADFRVTEESPEGVVTQTTTVALPDGTSRTLTYSYSKDASLTSVTVSYTPDSVTTTTTPVTPVPPGSPELAGS [r1_53_JUSTAS] | 0.24 ± 0.19
SAGGSAGGSSKTFKDPDGWTITVEPLDGGVKVEIYWPDGQRQEHLIPPGEPIKIDPNGWYIEISAGGSAGGS [r12_281_TrROS] | 2.11 ± 0.061
SAGGSAGGMTLKIKVAPGAVIRIYNKDGELIEEIEVEEGEEVEIEIELPEEDLENLRIEILPAPSAGGSAGG [r6_471_TrROS_Hall] | 4.6 ± 0.079
SAGGSAGGMKTITIELPPGPVRIRVRLAATGEEVTVEVDAETPTVTITIPEEGAEIVEIEIEPVSAGGSAGG [r6_977_TrROS_Hall] | 2.66 ± 0.13

Sequence | folding stability dG unfold [kcal/mol]
SAGGSAGGSAGGPVRLLVLEVPVENVEEVVRRLEALGSVRPVRVERLPGDRYRVLVVSPLSAGGSAGGSAGG [r7_589_TrMRF] | 1.54 ± 0.05
SAGGSAGGSAGKIWIYNPENGWIFEISIQPHPMPNDDGEPQWMFSIDVEVYPPGKPGQPISAGGSAGGSAGG [r11_531_TrROS] | 4.1 ± 0.066
SAGGSAGGDAKTFEVEGMTVFVDPETGLAVAEFPDGYLALGRIEVFGPGVAKVDLEIFPLPPGLSAGGSAGG [r6_670_TrMRF] | 1.53 ± 0.071
SAGGSAGGSAGGPKVIEITNKDGSTFRLVEVDGELYLYNEKTGKVVKLPPGAKITIKKPSAGGSAGGSAGGS [r10_637_TrROS_Hall] | 2.65 ± 0.031
SAGGIVEEAIKKLFESGIPLSEEEIKEIIEKAIKEENEKKGKKIEKIEIGEIKFNPETGYAPIKIKASAGGS [r16_365_TrMRF] | 1.44 ± 0.13
SAGGSAGGSAGKRRIYILGMDTVQVAEYLRDTGPDIKVEVFNPGQPMEEFQDNYDIVIFVSAGGSAGGSAGG [r17_225_TrROS] | 2.33 ± 0.1
SAGGSAGGSAGYLELKISFFDPDGQILASITIWIEIVIPPPPKMEYERDPEDGNNKWEHDSAGGSAGGSAGG [r17_348_TrROS] | 2.19 ± 0.056
SAGGSAGGSADGWVFLVGADVEVEPVPASLLNVPRSVPGEENPYVVKLKEVSFLLVPAKELSAGGSAGGSAG [r3_488_TrMRF] | 0.734 ± 0.23
MKEITVTLPVPEEVLAAIRAGKPLPLEEIKERVKEEIAKRLGYKNVTIKSVKVEKLPDGSLVIKVKVEFLPS [r1_290_JUSTAS] | 3.58 ± 0.044
SAGEKFEPVEEKELTLKITLKDKDGNEKEVEIKVKVEVVKNPDGTLTVRAEITFEDGTKIELELEIKLPSAG [r5_57_TrROS_Hall] | 3.19 ± 0.23
SAGGSAGGSAGSSMTTVTVTITDTGSGKTTTTELDVPVSEVQAVIDELSPSPTLTITVVQSAGGSAGGSAGG [r17_50_JUSTAS] | 1.51 ± 0.028
SAGGSAGGSAGKPKTVEIEVTNEDGSKYKAKVVEVDEEKGYVLIKITNPDGSEQTILIKLSAGGSAGGSAGG [r11_742_TrROS_Hall] | 2.97 ± 0.033
SANPIPLEKANITVSYTSPDGLVVTANITSVTYDPSTGKYTFTFTGTLTDPSTGTTTPVSFTVSTVTLSSAG [r14_825_JUSTAS] | 4.25 ± 0.099
SAGGGMQAVSPVKTETKTSPDGTTTTTTTTRYPDGTVVVPVTETSPTGGAKKVATTTVSLGPPSPALASAGG [r13_494_JUSTAS] | 1.07 ± 0.033
SAGGSAGGSAGGGPDAVRQFPPPVNLSVEVTSYTSPSSSLSNGKPEKSTFTTLNPTAGVSAGGSAGGSAGGS [r10_877_JUSTAS] | 0.0744 ± 0.19
SAGGSAGGSPWKKVKFKFMFPFPNYYVRISIEIWVNPGDNEIMIEMSIEIFPIPPGDNKAFKDSAGGSAGGS [r12_885_TrROS] | 3.9 ± 0.11
SMPVTITRDFDIPLATLSVEEVKAAIEEALKAEGLNVVEPKLDEKLVKELEEAPPSSTLPVKVTVLVEPASA [r9_1163_JUSTAS] | 0.715 ± 0.049
SAGGSAVERLRELLKELGVEVTVERKDGKVYIRVEASPEKREKLAEALRELFGKDIEIEVLEEGEEPSAGGS [r16_514_TrROS_Hall] | 3.17 ± 0.073
SAGGSAMTPEEARARAEAIAEELAAEARAAGRAAEVTVEVTELPPELYRFTITFPGRTREVLLPVESAGGSA [r15_432_JUSTAS] | -0.262 ± 0.15
SAGGSAGGKIKLDGKEIVIVMSKEEKEKIAKELKEKFPNVKIKVVEGMSEEEAAKKADLVIVFDSAGGSAGG [r6_679_TrROS_Hall] | 0.0544 ± 0.23
